The results in this text go back to patent US20220259593A1, “CONTROL OF MAMMALIAN GENE DOSAGE USING CRISPR” (The Regents of the University of California, priority 2019, published 2022).

This series deals with K562 CRISPRi cells. Nature of the series: Constant region variant library pooled growth screen, K562. The class given is cell-based, human. The settings on record: sgRNA constant region variants; activity relative to the original, un-modified constant region cr995. In a few lines:
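Growth screens in K562 CRISPRi cells were harvested 4-8 days post-selection at >2000× library coverage. Each variant's phenotype was referenced to the unmodified constant region with the same targeting sequence.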

Changes are numbered by the printed parent chain.

B1: cr010 (nucleic acid)
guide: GTTAAAGAGCTAAGCTGGAAACAGCATAGCAAGTTTAAATAAGGCTAGTCCGTTATCAACTTGAAAAAGTGGCACCGAGTCGGTGCT
modifications: listed as DNA, chemistry not fully specified
For B1, the Mean relative activity is given as 0.02976.

B2: cr492 (nucleic acid)
guide: B1 guide with A4T, A55C
modifications: listed as DNA, chemistry not fully specified
For the molecule B2, the Mean relative activity was found to be 1.034.

B3: cr454 (nucleic acid)
guide: B1 guide with A4T, G43T, C51A, A59C, T70G, C73T, G85A
modifications: listed as DNA, chemistry not fully specified
Consider B3, for which the Mean relative activity is 0.02618.

B4: cr096 (nucleic acid)
guide: B1 guide with A4T, A5G, A6T
modifications: listed as DNA, chemistry not fully specified
Regarding B4, the Mean relative activity is 0.02764.

B5: cr080 (nucleic acid)
guide: B1 guide with G1T, A4T, A5T
modifications: listed as DNA, chemistry not fully specified
With B5, the Mean relative activity is on record as 0.02323.

B6: cr641 (nucleic acid)
guide: B1 guide with A4T, T34G
modifications: listed as DNA, chemistry not fully specified
With B6, the Mean relative activity amounted to 0.02687.

B7: cr946 (nucleic acid)
guide: B1 guide with A4T, G43C, C51G, T62G, A67C, A74G, T84C
modifications: listed as DNA, chemistry not fully specified
In turn, B7 came in with a Mean relative activity of 0.0237.

B8: cr410 (nucleic acid)
guide: B1 guide with A4T, A59G, A65G, T70C
modifications: listed as DNA, chemistry not fully specified
For the molecule B8, the Mean relative activity is recorded as 1.034.

B9: cr935 (nucleic acid)
guide: B1 guide with A4T, A41G, A65C
modifications: listed as DNA, chemistry not fully specified
Regarding B9, the Mean relative activity is recorded as 0.02413.

B10: cr757 (nucleic acid)
guide: B1 guide with A4T, G33C, T62A, A67T
modifications: listed as DNA, chemistry not fully specified
In the case of B10, the Mean relative activity was 0.02851.

B11: cr952 (nucleic acid)
guide: B1 guide with A4T, A31T, T49G, T54A
modifications: listed as DNA, chemistry not fully specified
In turn, B11 registered a Mean relative activity of 0.02621.

B12: cr032 (nucleic acid)
guide: B1 guide with T2A, A4T, A5G
modifications: listed as DNA, chemistry not fully specified
B12: the Mean relative activity turned out to be 0.02646.

B13: cr542 (nucleic acid)
guide: B1 guide with A4T, T34A, T54C, A58G
modifications: listed as DNA, chemistry not fully specified
Molecule B13 came in with a Mean relative activity of 0.02115.

B14: cr745 (nucleic acid)
guide: B1 guide with A4T, G43A
modifications: listed as DNA, chemistry not fully specified
On to B14, for which the Mean relative activity was 0.02631.

B15: cr009 (nucleic acid)
guide: B1 guide with T3G, A4T
modifications: listed as DNA, chemistry not fully specified
B15: the Mean relative activity was determined as 0.02783.

B16: cr581 (nucleic acid)
guide: B1 guide with A4T, A37T
modifications: listed as DNA, chemistry not fully specified
With B16, the Mean relative activity was 0.02488.

B17: cr961 (nucleic acid)
guide: B1 guide with A4T, T62C, A67G, G72C, C73A, G85T, C86G
modifications: listed as DNA, chemistry not fully specified
Molecule B17 came in with a Mean relative activity of 1.088.

B18: cr933 (nucleic acid)
guide: B1 guide with A4T, T34G, G72T, C86A
modifications: listed as DNA, chemistry not fully specified
As for B18, the Mean relative activity is on record as 0.0286.

B19: cr547 (nucleic acid)
guide: B1 guide with A4T, A41G, G79A
modifications: listed as DNA, chemistry not fully specified
The molecule B19 returned a Mean relative activity of 0.02194.

B20: cr378 (nucleic acid)
guide: B1 guide with A4T, A41G
modifications: listed as DNA, chemistry not fully specified
Turning to B20, the Mean relative activity is listed as 0.02893.

B21: cr830 (nucleic acid)
guide: B1 guide with A4T, T49G, G72T
modifications: listed as DNA, chemistry not fully specified
B21 returned a Mean relative activity of 0.02925.

B22: cr012 (nucleic acid)
guide: B1 guide with A4G
modifications: listed as DNA, chemistry not fully specified
In turn, B22 came in with a Mean relative activity of 0.02769.

B23: cr570 (nucleic acid)
guide: B1 guide with A4T, G33C, A74T, T84A
modifications: listed as DNA, chemistry not fully specified
B23: the Mean relative activity was determined as 0.02846.

B24: cr030 (nucleic acid)
guide: B1 guide with T2C, A4T, A5T
modifications: listed as DNA, chemistry not fully specified
The molecule B24 had a Mean relative activity of 0.02089.

B25: cr986 (nucleic acid)
guide: B1 guide with A4T, T49G
modifications: listed as DNA, chemistry not fully specified
For B25, the Mean relative activity was 0.0258.

B26: cr922 (nucleic acid)
guide: B1 guide with A4T, T34G, C75A, G83T
modifications: listed as DNA, chemistry not fully specified
Regarding B26, the Mean relative activity is listed as 0.02327.

B27: cr700 (nucleic acid)
guide: B1 guide with A4T, A41T, A78C
modifications: listed as DNA, chemistry not fully specified
As to B27, the Mean relative activity amounted to 0.02103.

B28: cr950 (nucleic acid)
guide: B1 guide with A4T, A31T, T34G, T54G
modifications: listed as DNA, chemistry not fully specified
The molecule B28 yielded a Mean relative activity of 0.0224.

B29: cr737 (nucleic acid)
guide: B1 guide with A4T, C75G, C76G, G77C, A78T, C81G, G83C
modifications: listed as DNA, chemistry not fully specified
Molecule B29 displayed a Mean relative activity of 0.02539.

B30: cr320 (nucleic acid)
guide: B1 guide with A4T, A32T, A65G
modifications: listed as DNA, chemistry not fully specified
For the molecule B30, the Mean relative activity is 1.035.

B31: cr386 (nucleic acid)
guide: B1 guide with A4T, T34G, T61C, A68G
modifications: listed as DNA, chemistry not fully specified
On to B31, for which the Mean relative activity was found to be 0.02428.

B32: cr711 (nucleic acid)
guide: B1 guide with A4T, T34G, G72C, C86G
modifications: listed as DNA, chemistry not fully specified
For the molecule B32, the Mean relative activity was found to be 0.0267.

B33: cr043 (nucleic acid)
guide: B1 guide with T2G, A4T, A5T
modifications: listed as DNA, chemistry not fully specified
B33 had a Mean relative activity of 0.0245.

B34: cr085 (nucleic acid)
guide: B1 guide with A4T, A5T, A6T
modifications: listed as DNA, chemistry not fully specified
Take B34: the Mean relative activity worked out at 0.02666.

B35: cr627 (nucleic acid)
guide: B1 guide with A4T, G43T, C51A, A65G
modifications: listed as DNA, chemistry not fully specified
For B35, the Mean relative activity came out at 0.02763.

B36: cr633 (nucleic acid)
guide: B1 guide with A4T, A28G, G33T, A42C
modifications: listed as DNA, chemistry not fully specified
The molecule B36 showed a Mean relative activity of 0.02445.

B37: cr958 (nucleic acid)
guide: B1 guide with A4T, G33C, C76T, G82A
modifications: listed as DNA, chemistry not fully specified
As to B37, the Mean relative activity is listed as 0.0249.

B38: cr048 (nucleic acid)
guide: B1 guide with G1T, A4C
modifications: listed as DNA, chemistry not fully specified
For B38, the Mean relative activity is reported as 0.02761.

B39: cr095 (nucleic acid)
guide: B1 guide with T3A, A4T, A8T
modifications: listed as DNA, chemistry not fully specified
Consider B39, for which the Mean relative activity was 0.02974.
